Test results reported in article PMC5029092 (Science signaling, 2011).

How the values were obtained:
[1] = target: recombinant human TLR2 (human, UniProt O60603 21-588); assay: MST
[2] = target: recombinant human TLR4 and MD2 complex (human, UniProt O00206 24-631; Q9Y6Y9 19-160); assay: MST
Sequence of recombinant human TLR4 and MD2 complex (O00206 24-631, chain 1 of 2): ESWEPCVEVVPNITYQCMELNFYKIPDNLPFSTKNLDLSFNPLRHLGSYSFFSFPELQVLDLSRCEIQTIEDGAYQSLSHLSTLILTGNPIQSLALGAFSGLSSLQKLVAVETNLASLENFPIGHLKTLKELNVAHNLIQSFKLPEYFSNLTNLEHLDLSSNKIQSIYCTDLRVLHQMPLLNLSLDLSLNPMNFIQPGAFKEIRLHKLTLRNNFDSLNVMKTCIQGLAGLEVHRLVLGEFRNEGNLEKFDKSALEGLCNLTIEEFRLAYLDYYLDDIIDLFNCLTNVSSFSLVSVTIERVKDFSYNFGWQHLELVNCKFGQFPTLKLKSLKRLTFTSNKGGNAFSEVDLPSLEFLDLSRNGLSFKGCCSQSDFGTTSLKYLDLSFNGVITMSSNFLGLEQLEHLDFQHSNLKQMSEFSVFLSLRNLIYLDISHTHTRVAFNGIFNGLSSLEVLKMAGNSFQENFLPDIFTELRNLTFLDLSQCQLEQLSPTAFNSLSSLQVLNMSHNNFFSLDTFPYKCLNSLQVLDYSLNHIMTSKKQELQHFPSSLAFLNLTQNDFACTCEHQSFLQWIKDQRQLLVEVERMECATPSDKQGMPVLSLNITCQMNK
Sequence of recombinant human TLR4 and MD2 complex (Q9Y6Y9 19-160, chain 2 of 2): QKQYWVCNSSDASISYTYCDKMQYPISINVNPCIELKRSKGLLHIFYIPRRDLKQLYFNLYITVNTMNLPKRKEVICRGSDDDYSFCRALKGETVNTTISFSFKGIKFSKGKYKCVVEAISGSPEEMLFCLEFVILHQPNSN

Sequence of recombinant human TLR2 (O60603 21-588): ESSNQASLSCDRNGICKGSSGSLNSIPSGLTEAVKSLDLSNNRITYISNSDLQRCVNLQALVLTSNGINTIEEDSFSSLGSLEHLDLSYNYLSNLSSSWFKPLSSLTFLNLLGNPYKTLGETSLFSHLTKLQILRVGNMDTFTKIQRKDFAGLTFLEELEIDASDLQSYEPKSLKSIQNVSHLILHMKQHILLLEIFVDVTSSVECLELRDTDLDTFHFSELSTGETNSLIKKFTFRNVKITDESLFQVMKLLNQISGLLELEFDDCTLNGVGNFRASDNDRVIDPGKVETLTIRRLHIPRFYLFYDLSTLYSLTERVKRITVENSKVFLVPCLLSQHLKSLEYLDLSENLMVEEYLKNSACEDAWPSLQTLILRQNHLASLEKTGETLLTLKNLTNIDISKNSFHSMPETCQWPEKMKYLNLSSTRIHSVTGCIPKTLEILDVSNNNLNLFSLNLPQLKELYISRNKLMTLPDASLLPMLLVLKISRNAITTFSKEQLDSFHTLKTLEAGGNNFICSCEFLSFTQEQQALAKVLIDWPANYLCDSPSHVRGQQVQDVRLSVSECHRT

B1: NT-647-labeled human decorin (natural protein, UniProt P07585 31-359, looked up)
chain: DEASGIGPEVPDDRDFEPSLGPVCPFRCQCHLRVVQCSDLGLDKVPKDLPPDTTLLDLQNNKITEIKDGDFKNLKNLHALILVNNKISKVSPGAFTPLVKLERLYLSKNQLKELPEKMPKTLQELRAHENEITKVRKVTFNGLNQMIVIELGTNPLKSSGIENGAFQGMKKLSYIRIADTNITSIPQGLPPSLTELHLDGNKISRVDAASLKGLNNLAKLGLSFNSISAVDNGSLANTPHLRELHLDNNKLTRVPGGLAEHKYIQVVYLHNNNISVVGSSDFCPPGHNTKKASYSGVSLFSNPVQYWEIQPSTFRCVYVRSAIQLGNYK
modifications: fluorophore NT-647 (Monolith NT protein Labeling Kit)
Kd [1]: 59 ± 10 nM | Kd [2]: 37 ± 5 nM
